Source: patent US20120283172A1

These substances were tested against human growth hormone receptor on IM-9 cells (human) (UniProt P10912) (assay: not given).
Chain of UniProt P10912 (P10912 19-638): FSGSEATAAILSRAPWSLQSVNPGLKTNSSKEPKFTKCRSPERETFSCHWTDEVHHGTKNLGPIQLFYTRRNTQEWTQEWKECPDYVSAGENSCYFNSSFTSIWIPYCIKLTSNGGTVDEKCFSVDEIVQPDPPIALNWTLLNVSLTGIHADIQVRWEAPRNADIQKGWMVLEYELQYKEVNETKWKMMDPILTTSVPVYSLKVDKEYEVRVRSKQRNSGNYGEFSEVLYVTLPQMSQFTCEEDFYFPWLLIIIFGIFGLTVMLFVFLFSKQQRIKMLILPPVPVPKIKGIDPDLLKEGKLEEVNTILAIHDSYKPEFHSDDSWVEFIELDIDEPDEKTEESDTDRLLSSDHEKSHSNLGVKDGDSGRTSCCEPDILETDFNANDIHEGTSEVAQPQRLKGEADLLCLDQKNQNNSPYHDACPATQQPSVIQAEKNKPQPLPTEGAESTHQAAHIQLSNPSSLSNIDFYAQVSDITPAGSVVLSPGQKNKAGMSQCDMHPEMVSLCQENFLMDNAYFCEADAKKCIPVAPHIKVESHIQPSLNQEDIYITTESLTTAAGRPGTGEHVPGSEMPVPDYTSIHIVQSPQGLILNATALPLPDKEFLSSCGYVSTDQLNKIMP

Compared with (His)F92-pAF-30K (ligand), (His)F92pAF-5K (ligand) is 2.7-fold lower in EC50, STAT5 phosphorylation in IM-9 cells (intracellular phospho-STAT5 staining, FACS, MFI PE): 4.1 nM for the first, 1.5 nM for the second.

First: (His)F92pAF-20K (ligand)
Second: hGH F92pAF (from UniProt P01241 27-217) (ligand)
The EC50, STAT5 phosphorylation in IM-9 cells (intracellular phospho-STAT5 staining, FACS, MFI PE) of the first is 5.1-fold higher: 4.6 nM for the first, 0.9 nM for the second.

Target: human growth hormone receptor on IM-9 cells (human) (UniProt P10912)
Assay: not given
Remark: another data set of the same source

Substance “hGH F92pAF (from UniProt P01241 27-217) (ligand)” has an EC50, STAT5 phosphorylation in IM-9 cells (intracellular phospho-STAT5 staining, FACS, MFI PE) of 1.1 nM.

What follows are substances tested against human growth hormone receptor on IM-9 cells (human) (UniProt P10912) (assay: cell-based or functional assay).

Going from “His-tagged hGH Y143pAF (from UniProt P01241 27-217) (ligand)” to “hGH A155pAF (from UniProt P01241 27-217) (ligand)”, the EC50 of STAT5 phosphorylation in IM-9 cells (MFI by intracellular phospho-STAT5 staining) rises from 0.8 nM to 1.3 nM (1.6-fold).

“hGH E88pAF (from UniProt P01241 27-217) (ligand)” and “hGH F92pAF (from UniProt P01241 27-217) (ligand)” are within 1.5-fold of each other in EC50 of STAT5 phosphorylation in IM-9 cells (MFI by intracellular phospho-STAT5 staining): 0.9 nM for the first, 0.8 nM for the second.

Compared with “hGH F139pAF (from UniProt P01241 27-217) (ligand)”, “hGH G131pAF (from UniProt P01241 27-217) (ligand)” is 4.1-fold lower in EC50 of STAT5 phosphorylation in IM-9 cells (MFI by intracellular phospho-STAT5 staining): 3.3 nM for the first, 0.8 nM for the second.

Going from “hGH G136pAF (from UniProt P01241 27-217) (ligand)” to “hGH K140pAF (from UniProt P01241 27-217) (ligand)”, the EC50 of STAT5 phosphorylation in IM-9 cells (MFI by intracellular phospho-STAT5 staining) rises from 1.4 nM to 2.7 nM (1.9-fold).

First: hGH N99pAF (from UniProt P01241 27-217) (ligand)
Second: hGH P133pAF (from UniProt P01241 27-217) (ligand)
The EC50 of STAT5 phosphorylation in IM-9 cells (MFI by intracellular phospho-STAT5 staining) of the first is 8.5-fold higher: 8.5 nM for the first, 1 nM for the second.

Compared with “hGH Q91pAF (from UniProt P01241 27-217) (ligand)”, “hGH R134pAF (from UniProt P01241 27-217) (ligand)” is 2.2-fold lower in EC50 of STAT5 phosphorylation in IM-9 cells (MFI by intracellular phospho-STAT5 staining): 2 nM for the first, 0.9 nM for the second.

Going from “hGH S95pAF (from UniProt P01241 27-217) (ligand)” to “hGH T135pAF (from UniProt P01241 27-217) (ligand)”, the EC50 of STAT5 phosphorylation in IM-9 cells (MFI by intracellular phospho-STAT5 staining) falls from 16.7 nM to 0.9 nM (19-fold).

Compared with “hGH Y103pAF (from UniProt P01241 27-217) (ligand)”, “hGH Y111pAF (from UniProt P01241 27-217) (ligand)” is far lower in EC50 of STAT5 phosphorylation in IM-9 cells (MFI by intracellular phospho-STAT5 staining): 130000 nM for the first, 1 nM for the second.

Substance “rat growth hormone, wild type (from UniProt P01244 27-216) (ligand)” has an EC50 of STAT5 phosphorylation in IM-9 cells (MFI by intracellular phospho-STAT5 staining) greater than 200000 nM.
